According to the DeepSol protein solubility set:

test: soluble on expression in E. coli; label from the status in PepcDB or PDB records

Row | Sequence | soluble on expression in E. coli
1 | MGSDKIHHHHHHMGGLKMKVIILGSGSYSGTPKPLCTCENCTRARINPAFRRTRFSVYIEGGILIDPGPDLHYHLEKLNKEVETILITHAHFDHIFGLPDAQVFKKLTIASNPLGIKVARSLAMLAFNSEAPLGNDWDYVELKFWNEYKVNGVKVIHFPVVHSIEMAGGFLIERKNKTVAITGDTGPEIIRDSEVIDLIKGSDLLISEMTHKESIPKTHLGVNDAIELAKIVKAEQTVFAHISHSNYPQEILEKKVREAKISGIVARDFTIIEI | not soluble
2 | MGSDKIHHHHHHMGHKVTGSDANVYPPMSTQLEQQGIELIQGFDPAQLGKEGDNQPDLVVIGNAMSRGNPCVEAVLNRGIKYTSGPQFLSEHILQDRWVLAVAGTHGKTSTSSMLAWVLEYCGYEPGFLIGGVPQNFGVSARLGNSVFFVVEADEYDSAFFDKRSKFVHYHPRTLVINNLEFDHADIFADLAAIQRQFNHVIRTVPGEGKVIWPSDVEAVQQVIDMGCWSEQEIYSKATSLTTGLAEHSVNVSANQGEPNAWQPRTIADDGHEFEVLFKGESQGIVNWSLIGQHNIENAIMAIAAARHVGVAPSHAIEALAQFSPPKRRLELLATVNGVSVYDDFAHHPTAIATTLQGLRAKVASSDNANGNIIVVLEPRSNTMKSGVHKDTLANSMVLADVGYLYQADNIDWDIKASMANAPIPVTVFNNIEDIINAVAATANQGDTVVIMSNGGFNGIHQKMIKALA | not soluble
3 | MGSDKIHHHHHHMGKKHTSSYEVAYYDGDFTGAMKIPALLAVVIKVSEEQTELLGRDAAYVAQFGLGWVITNYEIEIHRLPKVGEKVAITTQAMSYNKYFCYRNFWVHDEEGKECVFVKSTFVLMDQKNRKISSVLPEIIAPFASAAITKIYRHEKIEKVTEGNFLPYRVRFFDIDGNQHVNNAIYFNWLLDVLGYDFLTTHQPKKILVKFDKEVEYGQEVESHYEIVEQENQLKTRHEIRIDGQTYCEANIDWTN | not soluble
4 | MGSDKIHHHHHHMGKKTTIAIAHSDADLGKPAEYTRDQLDLVKAMIRQIADQTMGGMGNIVHKGDKVLIKINTVIPVPANAGFTTDPRMLEALIELVQEQNPGRIQIGERCAMGADTMEAMRVCGIVDVAERTGVELCPFEHAEFDMYKIDRPISFNEFPVPRPVRDADCYIGLPKMKVHVHTTFTGAMKLQFGNLPNYDWMVRCHRDDIYQKIVNLTRAANPKWFVMDSLYACQGNGPFSPYSEDLIKDFNTICGGPDPVAVDTVCEALMDWDYPGTNVPSTVLGAAEGLGTNRMNEIELAGAPLDKVKRRFKRQNTILQGQYPNVNLVMGSTCEAGCKAIVRIQLDQLQADGTLERLEKPITIFTGLQFEEHINKVEGDVLIVGDCAKGMLEKFPDARYWGDCEEYPNCTPIWANRPDVGIANYVRQLTAVREGNAR | not soluble
5 | MGSDKIHHHHHHMGKLVLAAKVSHVPSLMLSETSDSPLRQARAGAVAALRELGRRAKEREVTTFVVFDTHWLSNFGYHINANAQHRGSFTSHEAPHMIQDLRYDLPGDPALAQAIAAEAQSHGLKVLAHQVPTLGLEYGTIVPMHYLNSDGWAKIVSIASPLFTSIEESRALGEATRRAIDASDERVAILASGSLSHRLWPNKDLGPDAWTTIASEFNRQVDLRVLQLWQERRYREFTAMLPDYAVKCNGEGGMADTVMLFAALGWDDYTGEAEPLCDYFPSSGSGQVNVEFHVS | not soluble
6 | MGSDKIHHHHHHMGLLNLLSTNRNENLFLPAHGRGNSLPKNIKTLLRLRPGIWDLPELFEIGGPLISEGAIAESQKSSAYEVGVDRCWYGVNGATGLLQSSLLALAHPGQAVLMPRNIHKSCIQACLFGGLTPLLFDVPYLTDRGHASVMDRKWLQRVLKKAKEYEDDIAAVVLVNPTYQGYSADMESLIKEIHSHSLPVLVDEAHGAYLISQIRPDLPKSAISFGADLVVHSLHKSASGLVQSAVLWSQGDKVDPFKIERAIELLQTSSPSSLLLASCESSIKELLESKGIKKLRLCIEEAEMLKDFLIKNEVPLLKNSDPLKIILHTSKFGLSGIEVDKSFIRKRMIGELAEPGTLTFCLGLSSHKRLGKRFVRIWNEILKACGKQKPCFFKRPPFGIVSKPYKSYSDSWGSNFEKVNLKDAIGRISVEMVCPYPPGIPLLIPGEILDEARVDWLIEQKSFWPEQISDFVRVIS | not soluble
7 | MGSDKIHHHHHHMGLLYRETYEVPFYESDTNHYMKLPQLLALALQISAKQSLKLGIGDDIVFKRYGLVWVVTDYIIDIERLPKHAEKIVIETEAKAHNKLLCYRYFYIYGEDGQKIITISSAFVLMDFKTRKIHPVLDDITSIYQSQRIKKVIRGPKYHPIGDSKVKQYHVRYFDLDMNGHVNNSKYLEWMYDVLDLDFLSSHIPKKIDLKYIKEIQYGTDIKSHWYQDGLVTRHDIIGGDAIHAQARIEWQEKKED | not soluble
